According to FireProtDB (doi:10.1016/j.bbapap.2014.10.010):

Details: Homo sapiens; pH 7.4; Thermal; DSC; Hepes 20 mM; NaCl 200 mM; transition: 2; reversible: No; whole UniProt chain shown

B1: Alanine--glyoxylate aminotransferase wild type, P21549 (protein)
chain: MASHKLLVTPPKALLKPLSIPNQLLLGPGPSNLPPRIMAAGGLQMIGSMSKDMYQIMDEIKEGIQYVFQTRNPLTLVISGSGHCALEAALVNVLEPGDSFLVGANGIWGQRAVDIGERIGARVHPMTKDPGGHYTLQEVEEGLAQHKPVLLFLTHGESSTGVLQPLDGFGELCHRYKCLLLVDSVASLGGTPLYMDRQGIDILYSGSQKALNAPPGTSLISFSDKAKKKMYSRKTKPFSFYLDIKWLANFWGCDDQPRMYHHTIPVISLYSLRESLALIAEQGLENSWRQHREAAAYLHGRLQALGLQLFVKDPALRLPTVTTVAVPAGYDWRDIVSYVIDHFDIEIMGGLGPSTGKVLRIGLLGCNATRENVDRVTEALRAALQHCPKKKL
- Tm: 82.1 °C
- unfolding enthalpy (calorimetric): 547 kcal/mol
